The record followed here is patent US20200207822A1, “PEPTIDE INHIBITORS OF INTERLEUKIN-23 RECEPTOR AND THEIR USE TO TREAT INFLAMMATORY DISEASES” (Protagonist Therapeutics, Inc., priority 2017, published 2020).

Positions of bridges follow the written chain, without caps; N, C: chain ends. Non-standard residues stand in square brackets, D forms with d. Groups on a side chain read outwards from the residue. 2Nal = N[C@@H](Cc1ccc2ccccc2c1)C(=O)O; AEF = NCCOc1ccc(C[C@H](N)C(=O)O)cc1; αMeL = CC(C)C[C@](C)(N)C(=O)O; Pen = CC(C)(S)[C@H](N)C(=O)O; dAbu = CC[C@@H](N)C(=O)O Where only a bound is given, the exact number is not on record here.

Sequences and labels used below:
T1: interleukin-23 receptor (IL-23R) (human, UniProt Q5VWK5 24-629)
T1 sequence (looked up): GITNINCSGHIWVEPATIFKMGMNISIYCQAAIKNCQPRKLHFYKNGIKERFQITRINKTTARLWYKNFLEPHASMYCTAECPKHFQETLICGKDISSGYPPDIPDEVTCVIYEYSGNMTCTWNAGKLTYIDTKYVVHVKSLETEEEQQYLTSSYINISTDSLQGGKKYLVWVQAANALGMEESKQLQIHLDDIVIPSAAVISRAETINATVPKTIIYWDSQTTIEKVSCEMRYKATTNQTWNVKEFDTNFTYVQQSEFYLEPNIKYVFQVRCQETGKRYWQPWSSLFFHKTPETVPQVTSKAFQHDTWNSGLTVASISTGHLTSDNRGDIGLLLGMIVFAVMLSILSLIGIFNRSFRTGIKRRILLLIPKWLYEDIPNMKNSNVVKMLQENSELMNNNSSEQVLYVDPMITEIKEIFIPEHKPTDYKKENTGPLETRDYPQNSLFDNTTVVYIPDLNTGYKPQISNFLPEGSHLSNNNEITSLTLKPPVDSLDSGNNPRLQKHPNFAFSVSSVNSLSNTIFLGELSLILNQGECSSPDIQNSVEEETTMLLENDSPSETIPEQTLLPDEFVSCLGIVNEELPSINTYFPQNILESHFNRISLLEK

B1: SEQ ID NO 218 (peptide)
peptide: XNTWKXXXXKNNX
modifications: Ac-[Pen]-NTW-[Lys(Ac)]-[Pen]-[Phe[4-(2-aminoethoxy)]-[2-Nal]-[α-MeLeu]-[Lys(Ac-(D)Asn)]-NN-[(D)Ile]-NH2
B2: SEQ ID NO 174 (peptide)
peptide: XNTWQXXXXKNNX
modifications: Ac-[Pen]-NTWQ-[Pen]-[Phe[4-(2-aminoethoxy)]-[2-Nal]-[α-MeLeu]-[Lys(Ac)]-NN-[(D)Arg]-NH2
B3: SEQ ID NO 177 (peptide)
peptide: XNTWQXXXXKNNX
modifications: Ac-[Pen]-NTWQ-[Pen]-[Phe[4-(2-aminoethoxy)]-[2-Nal]-[α-MeLeu]-[Lys(Ac)]-NN-[(D)Gln]-NH2
B4: SEQ ID NO 138 (peptide)
peptide: XXQTWQCXXXENN
modifications: Ac-[(D)Arg]-cyclo[[Abu]-QTWQC]-[Phe[4-(2-aminoethoxy)]-[2-Nal]-[α-MeLeu]-ENN-NH2
B5: SEQ ID NO 184 (peptide)
peptide: XNTWQXXXXKNNX
modifications: (Ac-[Pen]-NTWQ-[Pen]-[Phe(4-CONH2)]-[2-Nal]-[α-MeLeu]-[Lys(Ac)]-NN-[(D)Lys]-NH2)2-DIG
B6: SEQ ID NO 196 (peptide)
peptide: XNTWKXXXXKNNX
modifications: Ac-[Pen]-NTW-[Lys(Ac)]-[Pen]-[Phe[4-(2-aminoethoxy)]-[2-Nal]-[α-MeLeu]-[Lys(Ac)]-NN-[β-Ala]-NH2
B7: SEQ ID NO 170 (peptide)
peptide: XNTWKXXXXKNN
modifications: Ac-[Pen]-NTW-[Lys(Ac)]-[Pen]-[Phe[4-(2-aminoethoxy)]-[2-Nal]-[α-MeLeu]-[Lys(Ac)]-NN-NH2
B8: SEQ ID NO 198 (peptide)
peptide: XNTWKXXXXKNNX
modifications: Ac-[Pen]-NTW-[Lys(Ac)]-[Pen]-[Phe[4-(2-aminoethoxy)]-[2-Nal]-[α-MeLeu]-[Lys(Ac)]-NN-[Sar]-NH2
B9: SEQ ID NO 197 (peptide)
peptide: XNTWKXXXXKNNX
modifications: Ac-[Pen]-NTW-[Lys(Ac)]-[Pen]-[Phe[4-(2-aminoethoxy)]-[2-Nal]-[α-MeLeu]-[Lys(Ac)]-NN-[Ahx]-NH2
B10: SEQ ID NO 195 (peptide)
peptide: XNTWKXXXXKNNG
modifications: Ac-[Pen]-NTW-[Lys(Ac)]-[Pen]-[Phe[4-(2-aminoethoxy)]-[2-Nal]-[α-MeLeu]-[Lys(Ac)]-NNG-NH2
B11: SEQ ID NO 175 (peptide)
peptide: XNTWQXXXXKNNX
modifications: Ac-[Pen]-NTWQ-[Pen]-[Phe[4-(2-aminoethoxy)]-[2-Nal]-[α-MeLeu]-[Lys(Ac)]-NN-[(D)Ile]-NH2
B12: SEQ ID NO 147 (peptide)
peptide: XXQTWQCXXXENN
modifications: Ac-[(D)Arg]-cyclo[[Abu]-QTWQC]-[Phe[4-(2-aminoethoxy)]-[2-Nal]-[3-cyclohexyl-Ala]-ENN-NH2
B13: SEQ ID NO 153 (peptide)
peptide: XXQTWKCXXXENN
modifications: Ac-[(D)Arg]-cyclo[[Abu]-QTW-Lys(isoGlu-Palm)-C]-[Phe[4-(2-aminoethoxy)]-[2-Nal]-[4-amino-4-carboxy-tetrahydropyran]-ENN-NH2

The target in this experiment is T1, interleukin-23 receptor (IL-23R). Briefly: cell-based or functional assay.
For Ac-K([Ser-Ac])[Pen]NTWK(Ac)[Pen][AEF][2Nal][αMeL]K(Ac)NN-NH2 (disulfide 2-7 (inferred)) [SEQ ID NO 226], the “IC50, pStat3 HTRF (nM)” value is under 1 nM.
Take Ac-K([Glu-Ac])[Pen]NTWK(Ac)[Pen][AEF][2Nal][αMeL]K(Ac)NN-NH2 (disulfide 2-7 (inferred)) [SEQ ID NO 223]: the “IC50, pStat3 HTRF (nM)” value was under 1 nM.
The value for Ac-[dK]([Tyr-Ac])[Pen]NTWK(Ac)[Pen][AEF][2Nal][αMeL]K(Ac)NN-NH2 (disulfide 2-7 (inferred)) [SEQ ID NO 232] was under 1 nM.
The same measure for Ac-[dK]([Glu-Ac])[Pen]NTWK(Ac)[Pen][AEF][2Nal][αMeL]K(Ac)NN-NH2 (disulfide 2-7 (inferred)) [SEQ ID NO 230]: under 1 nM.
The same measure for XNTWQXXXXKNNS (Ac-[Pen]-NTWQ-[Pen]-[Phe[4-(2-aminoethoxy)]-[2-Nal]-[α-MeLeu]-[Lys(Ac)]-NNS-NH2) [SEQ ID NO 165]: under 1 nM; for B1: under 1 nM.
XXQTWQCXXXENN (Ac-[(D)Arg]-cyclo[[Abu]-QTWQC]-[Phe[4-(2-aminoethoxy)]-[2-Nal]-[Aib]-ENN-NH2) [SEQ ID NO 148]: the “IC50, pStat3 HTRF (nM)” value is under 1 nM.
Turning to B2, the “IC50, pStat3 HTRF (nM)” value was under 1 nM.
The same measure for XNTWQXXXXKNNY (Ac-[Pen]-NTWQ-[Pen]-[Phe[4-(2-aminoethoxy)]-[2-Nal]-[α-MeLeu]-[Lys(Ac)]-NNY-NH2) [SEQ ID NO 159]: under 1 nM; for B3: under 1 nM.
On to B4, for which the “IC50, pStat3 HTRF (nM)” value was under 1 nM.
The same measure for Ac-K([Arg-Ac])[Pen]NTWK(Ac)[Pen][AEF][2Nal][αMeL]K(Ac)NN-NH2 (disulfide 2-7 (inferred)) [SEQ ID NO 227]: under 1 nM; for Ac-[dK]([Phe-Ac])[Pen]NTWK(Ac)[Pen][AEF][2Nal][αMeL]K(Ac)NN-NH2 (disulfide 2-7 (inferred)) [SEQ ID NO 231]: under 1 nM; for Ac-K([Leu-Ac])[Pen]NTWK(Ac)[Pen][AEF][2Nal][αMeL]K(Ac)NN-NH2 (disulfide 2-7 (inferred)) [SEQ ID NO 228]: under 1 nM.
The same measure for B5: under 1 nM; for B6: under 1 nM; for XNTWQXXXXKNNQ (Ac-[Pen]-NTWQ-[Pen]-[Phe[4-(2-aminoethoxy)]-[2-Nal]-[α-MeLeu]-[Lys(Ac)]-NNQ-NH2) [SEQ ID NO 164]: under 1 nM.
The value for B7 was under 1 nM; that for Ac-K([Tyr-Ac])[Pen]NTWK(Ac)[Pen][AEF][2Nal][αMeL]K(Ac)NN-NH2 (disulfide 2-7 (inferred)) [SEQ ID NO 225] was under 1 nM; that for Ac-[dK]([Ser-Ac])[Pen]NTWK(Ac)[Pen][AEF][2Nal][αMeL]K(Ac)NN-NH2 (disulfide 2-7 (inferred)) [SEQ ID NO 233] was under 1 nM.
In the case of B8, the “IC50, pStat3 HTRF (nM)” value was under 1 nM.
Turning to Ac-K([Pro-Ac])[Pen]NTWK(Ac)[Pen][AEF][2Nal][αMeL]K(Ac)NN-NH2 (disulfide 2-7 (inferred)) [SEQ ID NO 229], the “IC50, pStat3 HTRF (nM)” value was under 1 nM.
With B9, the “IC50, pStat3 HTRF (nM)” value was under 1 nM.
XNTWQXXXXKNNR (Ac-[Pen]-NTWQ-[Pen]-[Phe[4-(2-aminoethoxy)]-[2-Nal]-[α-MeLeu]-[Lys(Ac)]-NNR-NH2) [SEQ ID NO 161]: the “IC50, pStat3 HTRF (nM)” value was under 1 nM.
Take Ac-K([Phe-Ac])[Pen]NTWK(Ac)[Pen][AEF][2Nal][αMeL]K(Ac)NN-NH2 (disulfide 2-7 (inferred)) [SEQ ID NO 224]: the “IC50, pStat3 HTRF (nM)” value was under 1 nM.
Turning to Ac-[dK]([Leu-Ac])[Pen]NTWK(Ac)[Pen][AEF][2Nal][αMeL]K(Ac)NN-NH2 (disulfide 2-7 (inferred)) [SEQ ID NO 235], the “IC50, pStat3 HTRF (nM)” value was under 1 nM.
The same measure for B10: under 1 nM; for Ac-[Pen]NTWQ[dAbu][AEF][2Nal][αMeL]K(Ac)NN-NH2 (thioether 1-6) [SEQ ID NO 137]: over 100 nM; for Ac-[dK]([Arg-Ac])[Pen]NTWK(Ac)[Pen][AEF][2Nal][αMeL]K(Ac)NN-NH2 (disulfide 2-7 (inferred)) [SEQ ID NO 234]: under 1 nM.
The value for Ac-[dK]([Pro-Ac])[Pen]NTWK(Ac)[Pen][AEF][2Nal][αMeL]K(Ac)NN-NH2 (disulfide 2-7 (inferred)) [SEQ ID NO 236] was under 1 nM.
The value for B11 was under 1 nM; that for B12 was under 1 nM; that for B13 was over 100 nM.
